Laboratory results taken from patent US20090203610A1, “METHODS OF TREATING OBESITY OR DIABETES USING NT-4/5” (RINAT NEUROSCIENCE CORPORATION, priority 2004, published 2009).

Legend:
[1] = system: db/db mice; assay: Heart and gastrocnemius muscle weight in db/db mice (Example 1); conditions: day 28; NT-4/5 20 mg/kg s.c., Rosiglitazone 3 mg/kg p.o.
Description: Test animals: 24 female 10-12 weeks old db/db mice (C57BL/Ks J Rj-db/db, Janvier, France), weighing in the target range of 40-50 g, were used in this study. These mice were housed in a temperature (19.5-24.5° C.) and relative humidity (45-65%) controlled room with a 12-hour light/dark cycle, with ad libitum access to filtered tap-water and irradiated pelleted laboratory chow (SAFE, France) throughout the study. Upon receipt at animal facilities, they were housed 4 per cage covered with filtered caps and at least a 5-day acclimation period was observed.
The mice were divided into three groups of 8 mice each (groups 1-3). Each group was treated with vehicle (PBS) subcutaneously (s.c.), 3 mg/kg Rosiglitazone orally (p.o.), or 20 mg/kg NT-4/5 subcutaneously (s.c.). From day 1 to day 5 (T1-T5) and then from day 8 to day 12 (T8-T12), the mice in groups 2 and 3 were dosed once daily for 5 consecutive days, with a volume of 10 ml/kg.
Heart weight and gastrocnemius weight were measured on day 28 for vehicle, Rosiglitazone, and NT-4/5 treated mice.

[2] = system: NONcNZO-10 polygenic obese mice; assay: Water intake, electrolyte balance and endocrine functions in NONcNZO-10 mice (Example 4); format: in vivo
Excerpt: Test animals: 40 male NONcNZO-10 polygenic obese mice obtained from Jackson Laboratory at 10 weeks of age weighing in the range of 26-32 g were used in this study.
Administration of NT-4/5: NT-4/5 was produced in E. coli as descried in U.S. Pat. No. 6,184,360. The mice were divided into 6 groups of equivalent body weight and baseline blood glucose distribution (6-7 mice per group). […] A “paired-fed” control group received daily injection of vehicle, but were only fed with the same amount of food the 3 mg/kg group consumed the previous day. On the day when the treatment started (day 1), a baseline blood samples were collected for measuring glucose and triglyceride. Triglyceride level was measured on day 10. At the end of the study (day 12), a terminal blood sample was collected to determine glucose, triglyceride, electrolytes (Na, K, Cl), testoterone, corticosterone, thyroid hormone (total T4) and thyroid stimulating hormone (TSH) levels. Electrolytes, free testosterone, T4 and TSH levels of serum samples were measured by AniLytics (Gaithesburg, M.D) according to the standard protocols employed by the vendor. Other analytes were measured as described above. Body weight, food intake were monitored 5 days per week through out the entire study. Daily water intake was measured from day 5 through day 7.
The effects of NT-4/5 treatment on water intake, electrolyte balance and endocrine functions were also tested. Water intake was measured from day 5 through 7. The electrolyte (i.e., Na, K, and Cl) concentrations were measured using the terminal blood samples taken on day 12. […] One way ANOVA followed by Dunnett's post-test were used for statistical analysis.

[3] = system: DIO mice; assay: Body weight and food intake in high fat diet-induced obese (DIO) mice (Example 5); format: in vivo; conditions: 2 and 10 mg/kg s.c.; P<0.001; dose dependent
Description: Test animals: Mice with diet induced obesity (DIO) from Jackson Laboratory were used in this study. El-Haschimi, J. Clin. Invest. 105:1827-1832 (2000); Steppan, Nature 409:307-312 (2001). 23 male C57BL/6J mice were weaned at 4 weeks of age. Immediately after weaning they were put on about 58% high fat diet ([…], Research Diet) through out the study. The DIO mice at 13 weeks of age weighing in the range of 28-40 g were used in this study. Older mice at 22-24 weeks of age were also used.
Administration of NT-4/5: NT-4/5 used in this study was obtained from Genentech. The mice were divided into 3 groups of equivalent body weight and baseline blood glucose distribution (7-8 mice per group). Each group received from day 1 to day 5, from day 8 to day 12, from day 15 to 16 a daily subcutaneous dose of either vehicle, 2 mg/kg or 10 mg/kg of NT-4/5, respectively. Five days prior to the treatment started (day −5), a baseline blood samples were collected for measuring glucose and triglyceride. Subsequent to the treatment started (day 1), blood glucose and triglyceride were measured once a week. Body weight, food intake were monitored 5 days per week through out the entire study. […] They were fasted overnight (for 16 hours) before fasting glucose levels were measured and the oral glucose tolerance test was conducted with a load of 2 grams of glucose/kg of body weight.

[4] = system: NONcNZO-10 polygenic obese mice; assay: Pegylated NT-4/5 cysteine mutant on body weight, food intake, glucose, triglyceride in NONcNZO-10 mice (Example 6); format: in vivo
Description: Test animals: 30 male NONcNZO-10 polygenic obese mice at 10 weeks of age weighing in the range of 27-32 g were used in this study.
Administration of NT-4/5 and pegylated NT-4/5: The mice were divided into 4 groups of equivalent body weight distribution (7-8 mice per group). Each group received on the first day (day 1) of the study one and the only dose of either vehicle alone, 1 mg/kg of NT-4/5 or 1 mg/kg of PEG-NT4-S50C, respectively. A final group received a daily subcutaneous dose of 1 mg/kg of NT-4/5 from day 1 to day 5, then from day 7 to day 9. On day 9 after the treatment started, blood samples were collected to determine serum glucose and triglyceride levels. Body weight and food intake were monitored 5 days a week through out the entire study.

[5] = system: DIO mice; assay: Weekly intravenous pegylated G1S NT-4/5 versus WT NT-4/5 on body weight and food intake in DIO mice (Example 8); format: in vivo
Excerpt: Test animals: Mice with diet induced obesity (DIO) were used in this study. 29 male C57BL/6J mice were weaned at 4 weeks of age. Immediately after weaning, they were put on 58% high fat diet (D12331i, Research Diet) through out the study. The DIO mice at 13 weeks of age weighing in the range of 28-40 g were used in this study.
Administration of NT-4/5 and pegylated NT-4/5: NT-4/5 was obtained from Genentech Inc. or produced as described in U.S. Pat. No. 6,184,360. Pegylated NT-4/5 was produced as follows: A mutation was introduced by changing the glycine 1 position of mature human NT-4/5 sequence to serine, resulting in a mutant form of NT-4/5 (NT4-G1S). NT4-G1S protein was expressed in E. coli, solubilized, extracted, purified and refolded as described above. Refolded NT4-G1S was dialyzed into 50 mM sodium phosphate buffer at pH 6.8 and treated with 1.5 molar excess sodium meta-periodate for 10 minutes to oxidize the N-terminal serine (or threonine) residue to an aldehyde. Remaining periodate was removed by dialysis against 30 mM sodium acetate at pH 4.5. The exact concentration of NT4-G1S was determined and a 2 to 4 fold molar excess of 20K-m-PEG-HZ (methoxy polyethylene glycol hydrazide) was added. The reaction was incubated at 37° C. for several days with gentle agitation. Unconjugated PEG, pegylated NT4-G1S and non-pegylated NT4-G1S were separated via ion exchange or size exclusion chromatography.
The mice were divided into 3 groups of equivalent body weight and baseline blood glucose distribution (7-8 mice per group). Each group received four weekly intravenous doses (on day 1, 8, 15 and 22) of either vehicle, 2 mg/kg of NT-4/5 or 2 mg/kg of pegylated G1S NT-4/5 respectively. Body weight and food intake were monitored 5 days per week through out the entire study.

[6] = single subcutaneous injection of 1 mg/kg, day 9

## CN(CCOc1ccc(CC2SC(=O)NC2=O)cc1)c1ccccn1 (centres unmarked) [Rosiglitazone, reference compound]
[1]
  Gastrocnemius weight: 0.074 g
  Heart weight: 0.114 g

B1: NT-4/5: mature human neurotrophin-4/5 (SEQ ID NO:1), obtained from Genentech or produced in E. coli (protein, listed as Homo sapiens)
chain: GVSETAPASRRGELAVCDAVSGWVTDRRTAVDLRGREVEVLGEVPAAGGSPLRQYFFETRCKADNAEEGGPGAGGGGCRGVDRRHWVSECKAKQSYVRALTADAQGRVGWRWIRIDTACVCTLLSRTGRA
[2]; 0.1-3 mg/kg/day, day 12
  serum corticosterone levels: did not significantly change
  testoterone levels: did not significantly change
[2]; compared to the vehicle control
  thyroid stimulating hormone (TSH) level: no change
[2]; daily 3 mg/kg, still within normal range
  Total thyroxine T4 reduction: about 33%
[2]; day 5 through 7, 0.1, 0.3, 1 and 3 mg/kg
  treatment groups showing a statistically significant difference from vehicle in water intake: None
[3]
  body weight: significantly reduced
  food intake: significantly reduced
[4]; daily dose of 1 mg/kg, on average, P<0.01
  triglyderide level reduction: about 50%
[4]; daily dose of 1 mg/kg, on average, P<0.05
  blood glucose level reduction: about 50%
[4]; daily injection of 1 mg/kg
  Daily food intake: without affecting daily food intake
  body weight: significantly reduced body weight
[4]; [6]
  blood glucose level: did not significantly reduce
  triglyceride level: did not significantly reduce
[5]; 2 mg/kg i.v. on day 1, 8, 15, 22, Bonferroni posttests
  body weight, pairwise difference with the vehicle control group: significant pairwise differences
[5]; 2 mg/kg i.v. weekly
  body weight with long term weekly dosing: more effective in maintaining lower body weight
